Measurements reported in article PMC11576661, “Biocatalytic sulfation of aromatic and aliphatic alcohols catalyzed by arylsulfate sulfotransferases” (Applied Microbiology and Biotechnology, 2024).

What was measured:
Assay in all cases: purified protein
Conditions in all cases: apparent, sulfate donor, acceptor phenol 100 mM, Tris/HCl 50 mM pH 8.0, 30 °C
[1] = substrate: O=[N+]([O-])c1ccc(OS(=O)(=O)O)cc1; type: biochemical, Desulfitobacterium dehalogenans
[2] = substrate: O=[N+]([O-])c1ccc(OS(=O)(=O)O)cc1; type: biochemical, Hungatella effluvii
[3] = substrate: O=[N+]([O-])c1ccc(OS(=O)(=O)O)cc1; type: biochemical, Desulfitobacterium hafniense
[4] = substrate: O=[N+]([O-])c1ccc(OS(=O)(=O)O)cc1; type: biochemical, Dehalobacterium formicoaceticum
[5] = substrate: O=[N+]([O-])c1ccc(OS(=O)(=O)O)cc1; type: biochemical, Desulfosporosinus orientis

B1: ASSTDdeh (Desulfitobacterium dehalogenans ATCC 51507) (protein)
chain: MMNPIKSEQIPHIIHRQKDFEEAFLAEFSAGHYTLANPLVELNPYEICPLTAMILFETPVSTEATIIVRGKEHPGDIRHTFPANKKHILPIYGLYADYENKVEIVLANGQRNTVTIKTGPLHPDVPVATSIKTTSEYMGNNLMFLTAAMKAMPVGYDYAGEVRWYATRNFAFDLKRIPNGHILIGTERLVKMPYFTTGLYEMAFSGKIFKEYRLPSGYHHDQFVMEDGNILVLTFDFYSGTVEDMCVLLDAETGEILKSWDYKKVLPQDVAGSGSQDAHDWFHNNAVWYDRKTNSLSLSGRHQDAVINIDYETGELNWIIGDPEGWPQDMVDQYFFTPVGEGEFDWQYEQHACVVLPDGDIMLFDNGHFRAKNKENYLPNSQNFSRGVRYRIDTEKMTIEQVWQYGKERGAEFFSPYICNVEYYDEGHYLVHSGGIGYENGETCEGMAVMKVLQPEFKDNVYTFNSITCELKDDVLMYELQVPANCYRAEKLPLYYAYETAELGEGKILGNLVETQETKMKIKAVETGERVPDHYEASITEEEDRILLNAIFDAGELAQLLLVDGDGGVKRYPISTVPQAFQAMCVGTFQKADPRNIDVYINKTGLSGKYQVKLIAEEKLYETGVSITA
notes: recombinant from E. coli BL21(DE3), C-terminal His-tag, IMAC purified, about 70-76 kDa
- Km [1]: 400 µM
- Vmax [1]: 21.2 µmol/min/mg
- kcat [1]: 25.3 s⁻¹
- kcat/Km [1]: 63200 M⁻¹ s⁻¹

B2: ASSTHeff (Hungatella effluvii) (protein)
chain: MIRYEKKNSLITQQAEAEQKFLETFEAGAYTASSPLVVRNPYLISPLSAMILFKTAVKQEVTLTVKGKEPEGDISHTFPADTIHILPVYGLYADCENTVELILSGGERETVMIKTEPLPPEVPVPTFCKGSGAHMGDNVIFLTQTSKADALACDYRGDVRWYLTVNVCFDMKRLANGHLLVGTDRLIKLPYYVSGVYEMGVHGKIYREYRLPGGYHHDTFEMEDGNILMLSQIPDRDTVEDVLVLVNRQTGAIVRTWDYREILPYDCQTTWSGSASAHDWFHNNAVWYDKKTDSITLSGRHQDAVINIDFKTGALNWILGDPEGWPEEYVEKYFFRPISEPFEWSYEQHGVVVCPDGDIMMFDNGHYRSKLKAHYSKAKDSYSRGVRYHIDREARTIEQVWQYGKERGADFFSPYICNVEYYDEGRYMVHSGGIAYKDGEPLEGLGSMDGTGEGCTLNAITCELVNDEVVYELHVPSNVFRAEKLPMYYAGETAELGAGKTLGSMSRTGEFETEIPAVCTGDLIPEHYEASVTEEEDRILFNATFEKGELAMLLLEEEDGKAHRYYINTSAAKNFEAMCVGTFLKNDPRNVDVYVNKCGMSKNVKVRVLLEDKIYETGVEIRME
notes: as for B1
- Km [2]: 2100 µM
- Vmax [2]: 39.8 µmol/min/mg
- kcat [2]: 46.9 s⁻¹
- kcat/Km [2]: 22300 M⁻¹ s⁻¹

B3: ASSTC (Desulfitobacterium hafniense) (protein)
chain: MVDYEYCPHIITKQNELEKAFMEKFEAGNYSLENPLVILNPYGVAPLTAMILFNTPIACEAKIIVKGKEHPGDIQHTFPAATRHILPVYGLYGGYKNTIKIILSTSSSNTITIQTEPLPKSVAIPSSIKTTSEYMGNNLMFLSPSMASLTVGYDYAGDVRWYCSLNVCFDLKRMPNGHLLIGTGRLVKVPYYTSGLYEMAFSGKIFKEFILPGGYHHDQFVMEDGNLLVLTQDFYADTVEDVCVLIDPHSGDILKKWDFKNILPQDVAGSGTQTAHDWFHNNAVWYDNRTNSLTLSGRHQDVIINIDYETGGLNWMIGDPEGWPQELVDKYFFTPAGDGEFDWQYEQHGCVVLPDGDIMVFDNGHYRSKNKENYRLNKDNFSRGVRYRIDTERMTIQQIWQYGKERGADFFSPFICNVEYYDEGHYMVHSGGIGYENGKPCEGLAVGKSKNPKFKDNVYTLNSITCELVNDELVYELQVPANFYRAEKLPIYYANEVAELCEGQRLGQFVETQTTRMKIKALETKEPIPEHYQAKIVEEEDRFCLNAIYESGETAQLLLVSESDEILRYPINTVAQAYGAMCVGTFQKSDPRNVDTFVTKTGLSGKYQVKLVAEDKIYETGVTISA
notes: as for B1
- Km [3]: 200 µM
- Vmax [3]: 0.6 µmol/min/mg
- kcat [3]: 0.7 s⁻¹
- kcat/Km [3]: 3600 M⁻¹ s⁻¹

B4: ASSTDfor (Dehalobacterium formicoaceticum) (protein)
chain: MNAIKSEQVPHIIHQQEKLEKAFLAEFAAGGYTLYNPLVKINPYGICPLTAMVLFETPVATEATVVVRGKEHLGDIRHTFPAGKKHILPIYGLYADYENKIELIMANGQKNTIKIQTEPLHTDVPVATSIKTTPEYMGNNLMFLTAAMRSMPVGYDYAGDIRWYATKNFAFDLKRLPNGHILVGTERLVKMPYFTTGLYEMAFSGKIFKEYVLPSGYHHDQFPMEDGNILVLTFDFYSGTVEDMCVLLDAKTGEVLKSWDYKKVLPQDVAGSGSQDEHDWFHNNAVWYDKKTNSLSLSGRHQDAVINIDYETGELNWIIGDPEGWPKEMVDKYFFTPVGDGDFDWQYEQHACVVLPDGDIMLFDNGHFRAKNKENYWPNSKNFSRGVRYRIDTEKMTIKQVWQYGKERGAEFFSPYICNVEYYNEGHYLVHSGGIGYENGKPCEGMAVMKTMQPEFKDNVYTFNSITCELKDDVLMYELQVPANCYRAEKLPLYYANETAELGAGEILGNLIKTEETKMKIKAEETGALVPDHFQASITEEEDRFLFNAIFDAGEMAQLLLVNEAGEIKRYPINTVPQAFQAMCVGTFQKADPRNIDTFINKIGLSGNYQVKLVAEEKVYETGVTIKA
notes: as for B1
- Km [4]: 500 µM
- Vmax [4]: 5.3 µmol/min/mg
- kcat [4]: 6.3 s⁻¹
- kcat/Km [4]: 12600 M⁻¹ s⁻¹

B5: ASSTDor (Desulfosporosinus orientis DSM 765) (protein)
chain: MSVKFKSFDHIITEQYQAEQAFLTEYQKGEYSFNNPYVKLNPYIIAPLTALVMFKTAQPTTVTITVKGKDKNGDICFNFPTAIEHLIPVYGLYANYANKVELALGDGKTNVITIQTEAAPEIVKLPTQINTTADYFEDNIMFVSPTSTAATAGYDYNGDVRWYGSLNFAFDIKRAKNGRLLLGTHRLVTPPYHTTGLYEMGMIGKIYKEYRLPSGYHHDQFEMEDGNLLILSQDLPRGTVEDMCVLVDRKTGQIIKSWDYQKVLPTNAGGSGSQDSHDWFHNNAVWYDKKTNSLTLSGRHQDIIINLDFETGALNWIIGDPEGWPKELVDNYFFKPVGKGEFDWQYEQHACVVCPNGDIMAFDNGHWRSKIKENYVTANDNFSRGVRYRIDTKKMEIEQVWQYGKERGAEFFSTYICNVEYYDEGHYLIHSGGIGSIDGEALNKPPVQFRGEDEKKVVFNSITVELKDDVMMYEMQLPANYYRAEKLKLYAAEDVLTLGKGELLGTLGVTEEFTTIPPAEEGGMVPEKYNVKLGLEEDRLIFKATFEKGQMVLLQLEGETTHSYFVPTTKRPFLAMCVGTFQESDDRAVEFPVSREGLAGGFRVSLIVDAYKYETGVTIKL
notes: as for B1
- Km [5]: 1000 µM
- Vmax [5]: 0.5 µmol/min/mg
- kcat [5]: 0.6 s⁻¹
- kcat/Km [5]: 600 M⁻¹ s⁻¹
